Consider five molecules from US9637764B2, “Methods of producing 7-carbon chemicals via carbon chain elongation associated with cyclohexane carboxylate synthesis” (INVISTA North America S.á r.l., priority 2012, dated 2017).

Type in all cases: biochemical
Data set [1] can be described thus: ω-transaminase activity assay, reverse direction (7-aminoheptanoate to pimelate semialdehyde), L-alanine formation by RP-HPLC. As to conditions: cell free extract, 10 mM 7-aminoheptanoate, 10 mM pyruvate, pH=7.5, 25° C., 4 h; against the empty vector control; FIG. 15. The procedure: (§1) A sequence encoding an N-terminal His-tag was added to the genes from Chromobacterium violaceum, Pseudomonas syringae, Rhodobacter sphaeroides, and Vibrio Fluvialis encoding the ω-transaminases of SEQ ID NOs: 8, 10, 11 and 13, respectively (see FIGS. 7F and 7G) such that N-terminal HIS tagged ω-transaminases could be produced. Each of the resulting modified genes was cloned into a pET21a expression vector under control of the T7 promoter and each expression vector was transformed into a BL21[DE3] E. coli host. The resulting recombinant E. coli strains were cultivated at 37° C. in a 250 mL shake flask culture containing 50 mL LB media and antibiotic selection pressure, with shaking at 230 rpm. Each culture was induced overnight at 16° C. using 1 mM IPTG.
(§2) The pellet from each induced shake flask culture was harvested via centrifugation. Each pellet was resuspended and lysed via sonication. The cell debris was separated from the supernatant via centrifugation and the cell free extract was used immediately in enzyme activity assays.
Enzyme activity assays in the reverse direction (i.e., 7-aminoheptanoate to pimelate semialdehyde) were performed in a buffer composed of a final concentration of 50 mM HEPES buffer (pH=7.5), 10 mM 7-aminoheptanoate, 10 mM pyruvate and 100 μM pyridoxyl 5′ phosphate. Each enzyme activity assay reaction was initiated by adding cell free extract of the ω-transaminase gene product or the empty vector control to the assay buffer containing the 7-aminoheptanoate and incubated at 25° C. for 4 h, with shaking at 250 rpm. The formation of L-alanine from pyruvate was quantified via RP-HPLC.

Data set [2] can be described thus: ω-transaminase activity assay, forward direction (pimelate semialdehyde to 7-aminoheptanoate), pyruvate formation by RP-HPLC. To be noted: for ω-transaminase activity for converting pimelate semialdehyde to 7-aminoheptanoate: cell free extract, 10 mM pimelate semialdehyde, 10 mM L-alanine, pH=7.5, 25° C., 4 h, against the empty vector control, FIG. 16; for ω-transaminase accepts pimelate semialdehyde and synthesizes 7-aminoheptanoate, concluded from the reversibility of the activity: conclusion from confirmed reversibility. The procedure: as §1, §2
Enzyme activity in the forward direction (i.e., pimelate semialdehyde to 7-aminoheptanoate) was confirmed for the transaminases of SEQ ID NO 10, SEQ ID NO 11 and SEQ ID NO 13. Enzyme activity assays were performed in a buffer composed of a final concentration of 50 mM HEPES buffer (pH=7.5), 10 mM pimelate semialdehyde, 10 mM L-alanine and 100 μM pyridoxyl 5′ phosphate. Each enzyme activity assay reaction was initiated by adding a cell free extract of the ω-transaminase gene product or the empty vector control to the assay buffer containing the pimelate semialdehyde and incubated at 25° C. for 4 h, with shaking at 250 rpm. The formation of pyruvate was quantified via RP-HPLC.

Data set [3] in a line: ω-transaminase activity assay, 7-aminoheptanol to 7-oxoheptanol, L-alanine formation by RP-HPLC. As to conditions: for ω-transaminase activity for converting 7-aminoheptanol to 7-oxoheptanol: cell free extract, 10 mM 7-aminoheptanol, 10 mM pyruvate, pH=7.5, 25° C., 4 h, against the empty vector control, FIG. 19; for ω-transaminase accepts 7-oxoheptanol and forms 7-aminoheptanol, concluded from reversibility: conclusion given the reversibility of the ω-transaminase activity (Example 2). Here is the method: A nucleotide sequence encoding an N-terminal His-tag was added to the Chromobacterium violaceum, Pseudomonas syringae and Rhodobacter sphaeroides genes encoding the ω-transaminases of SEQ ID NOs: 8, 10 and 11, respectively (see FIGS. 7F and 7G) such that N-terminal HIS tagged ω-transaminases could be produced. The modified genes were cloned into a pET21a expression vector under the T7 promoter. Each expression vector was transformed into a BL21[DE3] E. coli host. Each resulting recombinant E. coli strain were cultivated at 37° C. in a 250 mL shake flask culture containing 50 mL LB media and antibiotic selection pressure, with shaking at 230 rpm. Each culture was induced overnight at 16° C. using 1 mM IPTG.
as §2
Enzyme activity assays in the reverse direction (i.e., 7-aminoheptanol to 7-oxoheptanol) were performed in a buffer composed of a final concentration of 50 mM HEPES buffer (pH=7.5), 10 mM 7-aminoheptanol, 10 mM pyruvate, and 100 μM pyridoxyl 5′ phosphate. Each enzyme activity assay reaction was initiated by adding cell free extract of the ω-transaminase gene product or the empty vector control to the assay buffer containing the 7-aminoheptanol and then incubated at 25° C. for 4 h, with shaking at 250 rpm. The formation of L-alanine was quantified via RP-HPLC.

The nature of data set [4]: Carboxylate reductase activity assay, N7-acetyl-7-aminoheptanoate to N7-acetyl-7-aminoheptanal (NADPH consumption, absorbance at 340 nm). As to conditions: purified enzyme enhanced by the gene product of sfp, 2 mM N7-acetyl-7-aminoheptanoate, 1 mM ATP, 1 mM NADPH, pH=7.5, room temperature, 20 min; against the empty vector control; FIG. 12. The procedure: The activity of each of the N-terminal His-tagged carboxylate reductases of SEQ ID NOs: 3, 6, and 7 (see Examples 4, and FIGS. 7B, 7E, and 7F) for converting N7-acetyl-7-aminoheptanoate to N7-acetyl-7-aminoheptanal was assayed in triplicate in a buffer composed of a final concentration of 50 mM HEPES buffer (pH=7.5), 2 mM N7-acetyl-7-aminoheptanoate, 10 mM MgCl2, 1 mM ATP, and 1 mM NADPH. The assays were initiated by adding purified carboxylate reductase and phosphopantetheine transferase or the empty vector control to the assay buffer containing the N7-acetyl-7-aminoheptanoate then incubated at room temperature for 20 min. The consumption of NADPH was monitored by absorbance at 340 nm.

On to “SEQ ID NO 11: Rhodobacter sphaeroides ω-transaminase, Genbank Accession No. ABA81135.1”, for which, in data set [1], the “ω-transaminase activity for converting 7-aminoheptanoate to pimelate semialdehyde” value is reported as “accepted 7-aminoheptanote as substrate”. In data set [2], the “ω-transaminase activity for converting pimelate semialdehyde to 7-aminoheptanoate” value (from here on “ω-transaminase activity … to 7-aminoheptanoate”) is listed as “accepted pimelate semialdehyde as substrate”; the “ω-transaminase accepts pimelate semialdehyde and synthesizes 7-aminoheptanoate, concluded from the reversibility of the activity” value is “accepted pimelate semialdehyde as substrate and synthesized 7-aminoheptanoate”. In data set [3], the “ω-transaminase activity for converting 7-aminoheptanol to 7-oxoheptanol” value (“ω-transaminase activity … to 7-oxoheptanol” for short) is given as “accepted 7-aminoheptanol as substrate”; the “ω-transaminase accepts 7-oxoheptanol and forms 7-aminoheptanol, concluded from reversibility” value is reported as “accept 7-oxoheptanol as substrate”.

B1: SEQ ID NO 10: Pseudomonas syringae ω-transaminase, Genbank Accession No. AAY39893.1 (protein, listed as Pseudomonas syringae)
chain: MSANNPQTLEWQALSSEHHLAPFSDYKQLKEKGPRIITRAEGVYLWDSEGNKILDGMSGLWCVAIGYGREELADAASKQMRELPYYNLFFQTAHPPVLELAKAISDIAPEGMNHVFFTGSGSEGNDTMLRMVRHYWALKGQPNKKTIISRVNGYHGSTVAGASLGGMTYMHEQGDLPIPGVVHIPQPYWFGEGGDMTPDEFGIWAAEQLEKKILELGVENVGAFIAEPIQGAGGVIVPPDSYWPKIKEILSRYDILFAADEVICGFGRTSEWFGSDFYGLRPDMMTIAKGLTSGYVPMGGLIVRDEIVAVLNEGGDFNHGFTYSGHPVAAAVALENIRILREEKIVERVRSETAPYLQKRLRELSDHPLVGEVRGVGLLGAIELVKDKTTRERYTDKGAGMICRTFCFDNGLIMRAVGDTMIIAPPLVISFAQIDELVEKARTCLDLTLAVLQG
In the case of B1, in data set [1], the “ω-transaminase activity for converting 7-aminoheptanoate to pimelate semialdehyde” value was “accepted 7-aminoheptanote as substrate”. In addition, in data set [2], the “ω-transaminase activity … to 7-aminoheptanoate” value is recorded as “accepted pimelate semialdehyde as substrate”; the “ω-transaminase accepts pimelate semialdehyde and synthesizes 7-aminoheptanoate, concluded from the reversibility of the activity” value is “accepted pimelate semialdehyde as substrate and synthesized 7-aminoheptanoate”. Moreover, in data set [3], the “ω-transaminase activity … to 7-oxoheptanol” value was “accepted 7-aminoheptanol as substrate”; the “ω-transaminase accepts 7-oxoheptanol and forms 7-aminoheptanol, concluded from reversibility” value is “accept 7-oxoheptanol as substrate”.

B2: SEQ ID NO 8: Chromobacterium violaceum ω-transaminase, Genbank Accession No. AAQ59697.1 (protein, listed as Chromobacterium violaceum)
chain: MQKQRTTSQWRELDAAHHLHPFTDTASLNQAGARVMTRGEGVYLWDSEGNKIIDGMAGLWCVNVGYGRKDFAEAARRQMEELPFYNTFFKTTHPAVVELSSLLAEVTPAGFDRVFYTNSGSESVDTMIRMVRRYWDVQGKPEKKTLIGRWNGYHGSTIGGASLGGMKYMHEQGDLPIPGMAHIEQPWWYKHGKDMTPDEFGVVAARWLEEKILEIGADKVAAFVGEPIQGAGGVIVPPATYWPEIERICRKYDVLLVADEVICGFGRTGEWFGHQHFGFQPDLFTAAKGLSSGYLPIGAVFVGKRVAEGLIAGGDFNHGFTYSGHPVCAAVAHANVAALRDEGIVQRVKDDIGPYMQKRWRETFSRFEHVDDVRGVGMVQAFTLVKNKAKRELFPDFGEIGTLCRDIFFRNNLIMRACGDHIVSAPPLVMTRAEVDEMLAVAERCLEEFEQTLKARGLA
With B2, the “ω-transaminase activity for converting 7-aminoheptanoate to pimelate semialdehyde” value in data set [1] is “accepted 7-aminoheptanote as substrate”. For the same molecule, in data set [2], the “ω-transaminase accepts pimelate semialdehyde and synthesizes 7-aminoheptanoate, concluded from the reversibility of the activity” value is “accepted pimelate semialdehyde as substrate and synthesized 7-aminoheptanoate”. In data set [3], the “ω-transaminase activity … to 7-oxoheptanol” value was “accepted 7-aminoheptanol as substrate”; the “ω-transaminase accepts 7-oxoheptanol and forms 7-aminoheptanol, concluded from reversibility” value is given as “accept 7-oxoheptanol as substrate”.

B3: SEQ ID NO 3: Mycobacterium smegmatis carboxylate reductase, Genbank Accession No. ABK71854.1 (protein, listed as Mycobacterium smegmatis)
chain: MTSDVHDATDGVTETALDDEQSTRRIAELYATDPEFAAAAPLPAVVDAAHKPGLRLAEILQTLFTGYGDRPALGYRARELATDEGGRTVTRLLPRFDTLTYAQVWSRVQAVAAALRHNFAQPIYPGDAVATIGFASPDYLTLDLVCAYLGLVSVPLQHNAPVSRLAPILAEVEPRILTVSAEYLDLAVESVRDVNSVSQLVVFDHHPEVDDHRDALARAREQLAGKGIAVTTLDAIADEGAGLPAEPIYTADHDQRLAMILYTSGSTGAPKGAMYTEAMVARLWTMSFITGDPTPVINVNFMPLNHLGGRIPISTAVQNGGTSYFVPESDMSTLFEDLALVRPTELGLVPRVADMLYQHHLATVDRLVTQGADELTAEKQAGAELREQVLGGRVITGFVSTAPLAAEMRAFLDITLGAHIVDGYGLTETGAVTRDGVIVRPPVIDYKLIDVPELGYFSTDKPYPRGELLVRSQTLTPGYYKRPEVTASVFDRDGYYHTGDVMAETAPDHLVYVDRRNNVLKLAQGEFVAVANLEAVFSGAALVRQIFVYGNSERSFLLAVVVPTPEALEQYDPAALKAALADSLQRTARDAELQSYEVPADFIVETEPFSAANGLLSGVGKLLRPNLKDRYGQRLEQMYADIAATQANQLRELRRAAATQPVIDTLTQAAATILGTGSEVASDAHFTDLGGDSLSALTLSNLLSDFFGFEVPVGTIVNPATNLAQLAQHIEAQRTAGDRRPSFTTVHGADATEIRASELTLDKFIDAETLRAAPGLPKVTTEPRTVLLSGANGWLGRFLTLQWLERLAPVGGTLITIVRGRDDAAARARLTQAYDTDPELSRRFAELADRHLRVVAGDIGDPNLGLTPEIWHRLAAEVDLVVHPAALVNHVLPYRQLFGPNVVGTAEVIKLALTERIKPVTYLSTVSVAMGIPDFEEDGDIRTVSPVRPLDGGYANGYGNSKWAGEVLLREAHDLCGLPVATFRSDMILAHPRYRGQVNVPDMFTRLLLSLLITGVAPRSFYIGDGERPRAHYPGLTVDFVAEAVTTLGAQQREGYVSYDVMNPHDDGISLDVFVDWLIRAGHPIDRVDDYDDWVRRFETALTALPEKRRAQTVLPLLHAFRAPQAPLRGAPEPTEVFHAAVRTAKVGPGDIPHLDEALIDKYIRDLREFGLI
Take B3: the “carboxylate reductase activity for converting N7-acetyl-7-aminoheptanoate to N7-acetyl-7-aminoheptanal” value in data set [4] is “accepted N7-acetyl-7-aminoheptanoate as substrate”.

B4: SEQ ID NO 13: Vibrio fluvialis ω-transaminase, Genbank Accession No. AEA39183.1 (protein, listed as Vibrio fluvialis)
chain: MNKPQSWEARAETYSLYGFTDMPSLHQRGTVVVTHGEGPYIVDVNGRRYLDANSGLWNMVAGFDHKGLIDAAKAQYERFPGYHAFFGRMSDQTVMLSEKLVEVSPFDSGRVFYTNSGSEANDTMVKMLWFLHAAEGKPQKRKILTRWNAYHGVTAVSASMTGKPYNSVFGLPLPGFVHLTCPHYWRYGEEGETEEQFVARLARELEETIQREGADTIAGFFAEPVMGAGGVIPPAKGYFQAILPILRKYDIPVISDEVICGFGRTGNTWGCVTYDFTPDAIISSKNLTAGFFPMGAVILGPELSKRLETAIEAIEEFPHGFTASGHPVGCAIALKAIDVVMNEGLAENVRRLAPRFEERLKHIAERPNIGEYRGIGFMWALEAVKDKASKTPFDGNLSVSERIANTCTDLGLICRPLGQSVVLCPPFILTEAQMDEMFDKLEKALDKVFAEVA
For the molecule B4, the “ω-transaminase activity for converting 7-aminoheptanoate to pimelate semialdehyde” value in data set [1] is reported as “accepted 7-aminoheptanote as substrate”. Also, in data set [2], the “ω-transaminase activity … to 7-aminoheptanoate” value is “accepted pimelate semialdehyde as substrate”; the “ω-transaminase accepts pimelate semialdehyde and synthesizes 7-aminoheptanoate, concluded from the reversibility of the activity” value is “accepted pimelate semialdehyde as substrate and synthesized 7-aminoheptanoate”.
